Laboratory results taken from the supplement of paper PMC10266784.

B1: library; numbered along this chain (parent)
chain: MAAAAAAAAEQQSSNGPVKKSMREKAVERRSVNKEHNSNFKAGYIPIDEDRLHKTGLRGRKGNLAICVIILLFILAVINLIITLVIWAVIRIGPNGCDSMEFHESGLLRFKQVSDMGVIHPLYKSTVGGRRNENLVITGNNQPIVFQQGTTKLSVENNKTSITSDIGMQFFDPRTQNILFSTDYETHEFHLPSGVKSLNVQKASTERITSNATSDLNIKVDGRAIVRGNEGVFIMGKTIEFHMGGNMELKAENSIILNGSVMVSTTRLPSSSSGDQLGSGDWVRYKLCMCADGTLFKVQVTSQNMGCQISDNPCGNTH

Variants of: B1
Assay: SGCB cell-surface expression functional score (HA stain, bin4 vs bin1, normalised to synonymous) (log10 ratio); higher = more cell-surface SGCB (functional)
Method in brief: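 The functional score is a log ratio of variant frequency in the highest versus the lowest intensity bin, expressed as a median over codons and duplicate transductions. Codon-saturation libraries of HA-tagged, YFP-fused human beta-sarcoglycan were transduced by lentivirus at MOI <0.1 into HEK293 cells stably expressing alpha-, gamma- and delta-sarcoglycan, and the cells were stained on ice with Alexa Fluor 647 anti-HA, fixed and sorted into four 5% intensity bins before amplicon sequencing. Synonymous variants were scaled to mean 0, SD 0.5 within each section.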

SGCB cell-surface expression functional score (log10) of substitutions, site by site:
K297: E 0.15; F -0.47; N 0.46; Y -0.13; M 0.17; A -0.41; V -0.02; S -0.17; L -0.43; R 0.25; Q -0.3; T -0.16; W -1.48; C -0.07; D 0.03; G -0.21; I -0.54; H -0.02; P 0.02
Q299: P -0.01; V 0.01; T 0.05; F -0.05; W 0.13; D 0.16; K 0.21; E 0.61; M -0.25; G -0.02; Y -0.66; S 0.08; N 0.04; R 0; C -1.36; A 0.08; H -0.17; I 0.37; L -0.23
L287: D -0.88; E -0.2; T -0.72; F -0.14; V -0.04; W -1.34; M -2.09; R -1.38; C 0.06; Y -0.22; S -1.02; G -0.84; H -0.31; P 0.16; I 0.07; K -0.59; Q -1.3; N -2.02; A -0.96
C288: A -0.03; E 0.01; F -0.71; V -0.72; L -0.83; D 0.01; S -0.07; H -1; T -0.27; Q -0.16; K -1.15; N -0.51; I -0.55; G -0.27; Y -0.01; P -0.81; M -1.54; R -0.93; W -0.68
V300: I -0.28; L -1.14; F -0.2; E -0.69; Q -1.07; C -0.27; Y -0.33; P -0.35; D -0.2; H -0.8; M -1.6; S -0.35; K -2.02; T 0.05; G -0.65; A -0.02; R -0.27; W -0.26; N -0.77
C290: W 0.07; R -0.56; I 0.02; V -0.97; P -1.32; H -0.47; A -0.08; N -0.11; M -0.16; T -0.17; F -0.75; S -0.53; Q -0.2; K -0.15; Y -0.57; G -0.08; E 0.01; D 0.2; L -0.51
T294: V 0.14; E -0.33; Y -0.33; W 0.57; S 0.17; H -0.74; C -0.97; P 0.04; K -0.03; N 0.12; M 0.19; L 0.29; Q 0.06; F 0.01; G 0.5; I -0.04; R -0.13; D 0.14; A 0.08
V298: D -0.58; F -1.04; P -0.53; N -0.06; R -0.21; L -0.21; K 0.19; C 0.01; S -0.15; M 0.21; G -0.37; H -0.85; A -0.24; Q -1.06; E 0.17; I 0.1; T -0.74; Y -1.36; W 0.29
Y285: K -0.76; N -0.74; L -0.66; M -2.09; V -0.66; T -1.86; Q -0.54; I -1.22; G -0.29; H -0.04; F -0.2; S -0.49; W 0.09; P -0.24; D -0.09; C -0.68; E -2.12; R -1.05; A -0.68
F296: H -0.39; Q -0.65; V -0.33; W 0.16; K -1.28; R -0.46; P -0.5; D -0.42; N -0.63; I 0.21; T -0.42; G -0.62; A -0.24; C -0.18; S -0.26; E -1.06; M -0.13; L -0.05; Y 0.25
T301: N -0.45; R -0.14; H -0.15; E 0.06; S -0.16; G 0.13; P -0.57; C 0.31; F -0.72; Q 0.16; D 0.33; V -0.21; M 0.86; A -0.27; I -0.29; L -0.56; K 0.28; W 0.96
L295: W -1.84; E -0.95; N -1.17; M -0.78; K -0.07; T 0.03; D -1.13; C -0.2; P -0.13; I 0.11; A -0.91; G -0.87; Q -0.13; S -0.42; Y -0.02; R -0.52; F -0.18; V -0.12; H -0.62
G293: H 0.14; T 0.13; E 0.05; D 0.2; N 0.21; Y -0.17; F -0.08; C 0.03; R -0.02; P -0.23; S -0.48; K -0.71; Q 0.3; I -0.08; A -0.12; M -0.11; V -0.73; L -0.36; W -0.35
A291: C -0.42; Y 0.25; L -0.71; D -0.71; K -0.46; Q -0.72; E -0.98; H -0.89; R 0.01; P 0.02; I -0.64; G -0.19; S -0.06; W -1.18; N 0.17; F 0.25; M -2.2; T 0.17; V -0.85
R284: Q 0.05; S -0.16; W 0.31; M 0.28; V -1.16; Y 0.27; I -0.39; K -0.73; L -0.57; P -0.73; N -2.05; T -0.97
D292: H -0.19; L 0.07; M 0.17; S -0.12; I 0.06; C 0.07; V -0.08; Q -1.17; E 0.1; R -1.29; F -0.23; W -2.02; T -0.67; Y -0.33; G -0.42; A -0.14; P -0.16; N -0.13; K -0.24
M289: P -1.06; G -1.37; T -0.81; Q -1.35; A -1; D -0.92; E 0.05; V -0.24; W -1.6; R -0.22; K -0.23; S -0.79; L -0.19; H -0.85; F -1.2; C -0.54; Y 0.01; N 0.11; I 0.1
K286: S -1.02; E -0.77; I -0.67; W -0.09; M 0.29; V 0.03; A -0.54; L -0.42; H -1.12; F -0.07; D -1.17; R -1; C -1.06; G -0.81; Y -0.08; N -0.03; Q -0.61; T -1.08; P 0.02
